Data as given in publication PMC7782405 (Molecular Imaging and Biology, 2020).

What was measured:
in vivo [1] = test: in vivo; parameters: species or system mice; details: female, athymic Balb/c nude, mouse, iv, total radioactivity, Tumor uptake (PET)
Protocol: (§1) All animal experiments complied with the current laws of the Federal Republic of Germany and were conducted according to German Animal welfare guidelines. Normal female athymic Balb/c nude mice (17–20 g, 4–6 weeks old) were obtained from Janvier SAS (St. Berthevin Cedex, France). Mice were provided with food and water ad libitum. U-87MG tumors were induced on the right shoulder by sub-cutaneous injection of 5 × 10^6 cells in a 100 μl cell suspension of a 1:1 v/v mixture of media with reconstituted basement membrane (GFR BD Matrigel™, Corning BV, Amsterdam, Holland). Static and dynamic PET imaging experiments were conducted on a microPET Focus 120 scanner (Concorde Microsystems). For dynamic PET imaging studies, approximately 5 min prior to recording PET images, mice (n = 3) were anesthetized by inhalation of 2–3 % isoflurane/oxygen gas mixture, fitted with an intravenous catheter and placed on the scanner bed in the prone position. Anesthesia was maintained using 1–2 % isoflurane. For all experiments, animals were injected with 100 μl sterile filtered phosphate-buffered saline formulations pH 7.4 of [^64Cu]Cu-8 and [^64Cu]Cu-9 (~ 500 pmol, 7–11 MBq). Dynamic scans were recorded from 0 to 1 h post radiotracer administration. List-mode data were acquired using a γ-ray energy window of 350–650 keV and a coincidence timing window of 6 ns. For the 24 h p.i. time point, mice were injected 24 h prior to image acquisition and placed in the cages. Five to ten minutes prior to static PET imaging, mice were anesthetized with isoflurane (2–4 % in air) and positioned in the scanner. Animals of the PET imaging studies were included in the ex vivo biodistribution studies (vide infra). Reconstruction was performed using unweighted OSEM2D. Image analysis was performed using AMIDE. Image counts per second per voxel (cps/voxel) were calibrated to activity concentrations (Bq ml^−1) by measuring a 3.5-cm cylinder phantom filled with a known concentration of radioactivity.

[2] = tested on: mice bearing U-87MG xenografts; test: in vivo; details: mouse
Protocol: as §1

in vivo [3] = test: in vivo; parameters: species or system mice; details: female, athymic Balb/c nude, mouse, in vivo, iv, total radioactivity
Protocol: (§2) All animal experiments complied with the current laws of the Federal Republic of Germany and were conducted according to German Animal welfare guidelines. Normal female athymic Balb/c nude mice (17–20 g, 4–6 weeks old) were obtained from Janvier SAS (St. Berthevin Cedex, France). Mice were provided with food and water ad libitum. U-87MG tumors were induced on the right shoulder by sub-cutaneous injection of 5 × 10^6 cells in a 100 μl cell suspension of a 1:1 v/v mixture of media with reconstituted basement membrane (GFR BD Matrigel™, Corning BV, Amsterdam, Holland). For each compound, a total of three animals were injected with [^64Cu]Cu-8 and [^64Cu]Cu-9 (~ 500 pmol, 7–11 MBq) in 100 μl sterile filtered phosphate-buffered saline via a tail vein. At 1 h p.i., animals were sacrificed by isoflurane anesthesia. Organs of interest were dissected, weighed, and assayed for radioactivity in a gamma counter. The percent injected activity per gram (%IA g^−1) for each tissue was calculated by comparison of the tissue counts to a standard sample prepared from the injectate.

[4] = tested on: mice bearing U-87MG xenografts; test: in vivo; details: for reduction of uptake in U-87MG xenografts by co-injection of c(RGDfK) 7: 1 h p.i.
Protocol: as §2

U-87MG cells = test: Cell internalization assay; type: cell-based, human; details: for specific surface-bound fraction: all time points
Protocol: For cell internalization, U-87MG cells were seeded at a density of 10^6 cells per well in 6-well plates and incubated overnight with medium (Dulbecco modified Eagle medium with GlutaMAX containing 10 % fetal bovine serum, 1 % 10,000 U ml^−1 penicillin and 10,000 U ml^−1 streptomycin, 1 % sodium-pyruvate 100 mM). After 24 h, the medium was removed and the cells were washed with PBS. Approximately 2.5 pmol of [^64Cu]Cu-8 and [^64Cu]Cu-9 was added to the cells (in triplicates) to give a final volume of 1.5 ml PBS in each well followed by incubation for 1 h at 37 °C, 5 % CO2. […] At each time point, the internalization was stopped by removing the medium and washing the cells twice with ice-cold PBS. To remove the receptor-bound radioligand, an acid wash was carried out twice with a 0.1 M glycine buffer pH 2.8 for 5 min on ice. Finally, cells were solubilized with 1 N NaOH. Radioactivity of cell fractions (supernatant, receptor-bound, and internalized) was measured by a Perkin Elmer gamma counter. Experiments were performed twice in triplicate.

[5] = female, athymic Balb/c nude, mouse, in vivo, iv, 1 h

SMILES	tissue uptake per volume at 1 h (in vivo [1]; 5 mg/kg) [%ID/mL]	tissue uptake per volume at 1 h (in vivo [1]) [%ID/mL]	liver uptake, normal vs blocking groups (PET) [2]	time to maximum tumor accumulation (TAC) [2] [min]	tissue to tissue ratio at 1 h (in vivo [3]; Tumor-to-blood ratio)	tissue to tissue ratio at 1 h (in vivo [3]; Tumor-to-kidney ratio)	tissue to tissue ratio at 1 h (in vivo [3]; Tumor-to-liver ratio)	tissue to tissue ratio at 1 h (in vivo [3]; Tumor-to-muscle ratio)	reduction of uptake in U-87MG xenografts by co-injection of c(RGDfK) 7 [4] [%]	Tumor-to-blood ratio [4, 5]	Tumor-to-kidney ratio ([4]; mouse, in vivo)	Tumor-to-liver ratio ([4]; mouse, in vivo)	receptor-mediated (αvß3-specific) internalization (U-87MG cells; 4 h) [%]	receptor-mediated (αvß3-specific) internalization (U-87MG cells; after 30 min) [%]	specific surface-bound fraction (U-87MG cells) [%]	fold higher tumor uptake compared with the monomeric counterpart (PET images) [2]	Tumor-to-liver ratio [4, 5]	fold higher tumor uptake compared with the monomer [^64Cu]Cu-8 ([4]; mouse, in vivo)
Cn1ccnc1CN1CCN(CC(=O)NCCCC[C@@H]2NC(=O)[C@@H](Cc3ccccc3)NC(=O)[C@H](CC(=O)O)NC(=O)CNC(=O)[C@H](CCCNC(=N)N)NC2=O)CCN(Cc2nccn2C)CC1 [[^64Cu]Cu-8, metal not drawn]	0.91 ± 0.39	2.61 ± 0.65	No significant differences	5 to 10	15 ± 3.05	0.86 ± 0.04	0.83 ± 0.1	10.5 ± 4.79	89	14.37	0.86	0.84	1.4 ± 0.1	0.2 ± 0.1	≤ 0.1	–	–	–
N=C(N)NCCC[C@@H]1NC(=O)[C@H](CCCCNC(=O)CCCCn2ccnc2CN2CCN(Cc3nccn3CCCCC(=O)NCCCC[C@@H]3NC(=O)[C@@H](Cc4ccccc4)NC(=O)[C@H](CC(=O)O)NC(=O)CNC(=O)[C@H](CCCNC(=N)N)NC3=O)CCN(Cc3nccn3CCCCC(=O)NCCCC[C@@H]3NC(=O)[C@@H](Cc4ccccc4)NC(=O)[C@H](CC(=O)O)NC(=O)CNC(=O)[C@H](CCCNC(=N)N)NC3=O)CC2)NC(=O)[C@@H](Cc2ccccc2)NC(=O)[C@H](CC(=O)O)NC(=O)CNC1=O [[^64Cu]Cu-9, metal not drawn]	2.18 ± 0.66	4.42 ± 1.1	No significant differences	5 to 10	–	0.73 ± 0.11	1.03 ± 0.26	14.1 ± 3.83	60	–	0.73	–	8.7 ± 0.6	0.7 ± 0.2	≤ 0.1	~ 2 fold	0.99	~ 2.5 fold
